One sequence from patent publication US6861234B1, “Method of epitope discovery” (MannKind Corporation, priority 2000, dated 2005) can be followed below.

The test deals with HLA-A2.1 (Homo sapiens, UniProt P04439, D140Y/D185E/D98H/E176V/E277Q/G131W/G231S/I119V/I121R/I166T/I218V/L300P/L318F/N151K/N90K/P208A/P217A/Q86G/Q94H/R138H/R169H/T345S). Description: T2 cell HLA-A2.1 stabilisation (peptide binding) assay by flow cytometry, method of Stauss et al. Format: cell-based. The following applies: T2 cells, β2 microglobulin 5 μg/ml, peptides at 100, 10, 1 and 0.1 μg/ml, 4 hours 37° C., W6/32 + FITC anti-mouse IgG, FACScan; FIG. 3. From the text:
The epitope is synthesized and tested for its ability to bind a MHC receptor. For example, in one preferred assay, cells displaying the MHC I receptor can be used to measure the binding affinity of candidate peptides labeled with a radionuclide. Another preferred approach measures the ability of a peptide to bind to an MHC I receptor using a cell culture-based assay. In this assay, cells lacking transporters associated with antigen processing (TAP) are used to determine whether or not a candidate peptide has the ability to bind to the MHC I receptor. […] When the cell is flooded with exogenous peptide that can bind to the MHC I cleft, expression of the receptor is restored. This can be monitored by several means such as RIA, FACS, and the like. Using TAP^− cells, one of skill in the art can screen large numbers of potential candidate peptides for receptor binding without having to perform detailed binding affinity analysis.
Binding of a candidate epitope to HLA-A2.1 was assayed according to the method of Stauss et al., (Proc Natl Acad Sci USA 89(17):7871-5 (1992)). […] Peptides were added at 100, 10, 1 and 0.1 μg/ml. The plate was rocked gently for 2 minutes and then incubated for 4 hours in a 5% CO2 incubator at 37° C. After the unbound peptide was removed by washing twice with IMDM, a saturating amount of monoclonal antibody W6/32 (Sigma) was added. […]
(Flow cytometry measures light scatter and fluorescence of single cells or particles in a stream.)

With “FLPWHRLFLL (Homo sapien) [tyrosinase 207-216]”, the “binding to HLA-A2.1 (surface HLA-A2.1 molecules stabilized by peptide binding, fluorescence)” value is “bind HLA-A2.1 to a similar extent as the known A2.1 binder FLPSDYFPSV”.
